Measurements: the nanobody polyreactivity screen of Harvey et al. (2022)

Test: yeast display, Sf9 membrane polyspecificity reagent, FACS + sequencing; frameworks hold sequencing errors
How it was run: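 In a synthetic yeast display library (Saccharomyces cerevisiae BJ5465), nanobody expression was induced with galactose for 36–48 hours. FACS gates were set low and high (top ~1%) using anti-HA fluorescence for expression and streptavidin fluorescence for binding of the Sf9 membrane reagent. Each polyreactivity label is drawn from the gate of origin.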

Sequence | polyreactivity (PSR sort gate)
QVQLVESGGGLVQAGGSLRLSCAASGSTFSPNAMGWYRQAPGKERELVAAITYRGANTYYADSVKGRFTISRDNEKNTVYLQMNSLKPEDTAVYYCAAEYAYHHVGFGYWGQGTQVTVSS | low polyreactivity
QVQLVESGGGLVQAGGSLRLSCAASGSTFSPYAMGWYRQAPGKERELVANITISGGSTYYADSVKGRFTISRDNAKNTVYLQMNSLKPEDTAVYYCNADSLIRWLFTVVIFDYWGQGTEVTVSS | low polyreactivity
QVQLVESGGGLVQAGGSLRLSCAASGSTFSQNAMGWYRQAPGKERELVAAITSGGITYYADSVKGRFTISRDNAKNTVYLQMNSLKPEDTAVYYCAADFWPSGRGVAFDYWGQGTQVTVSS | low polyreactivity
QVQLVESGGGLVQAGGSLRLSCAASGSTFSQYAMGWYRQAPWKERELVAAITSTGGSTYYADSVKGRFTISRDNAKNTVYLQMNSLKPEDTAVYYCYPYIRDPKYNYWGQATQVTVSS | low polyreactivity
QVQLVESGGGLVQAGGSLRLSCAASGSTFSQYVMGWYRQAPAKERELVAAISSGGSTYYADSVKGRFTISRDNAKNTVYLQMNSLKPEDTAVYYCAAKYDGSYVGLYWYSMNYWGQGTQVTVSS | low polyreactivity
QVQLVESGGGLVQAGGSLRLSCAASGSTFSRNAMGWSRQAPGKERELVAAISWRGGRTYYADSVKGRFTISRDNAKNTVYLQMNSLKPEDTAVYYCAAEHKYRYDYWGQGTQVTVSS | low polyreactivity
QVQLVESGGGLVQAGGSLRLSCAASGSTFSRNAMGWYRQAPGKERELVAAINYSGGITYYADSVKGRFTISRDNAKNTVYLQMNSLKPADTAVYYCAKRGIGDPGQHPLGFGYWGQGTQVTVSS | low polyreactivity
QVQLVESGGGLVQAGGSLRLSCAASGSTFSRYAMGWYRQAPGKERELVAAISSNGGRTYYADSVKGRFTISRDNAKNTVYLQMNSLKPEDTAVYYCAAVNYLTMDYWGQGTQVTVSS | high polyreactivity
QVQLVESGGGLVQAGGSLRLSCAASGSTFSRYAMGWYRQAPGKERELVAAISSRGGSTYYADSVKGRFTISRDNAKNTVYLQMNSLKPEDTAVYYCNALSSYQNHVYPYDYWGQGTQVTVSS | high polyreactivity
QVQLVESGGGLVQAGGSLRLSCAASGSTFSRYAMGWYRQAPGKERELVAAISTRGGSTRYADSVKGRFTISRDNAKNTVYLQMNSLKPEDTAVYYCAALGQGRTSATSFVDYEYWGQGTQVTVSS | high polyreactivity
QVQLVESGGGLVQAGGSLRLSCAASGSTFSRYAMGWYRQAPGKERELVAAITRSGGSTYYADSVKGRFTISRDNAKNTVYLQMNSLKPEDTAVYYCAASRGRGGYGFDYWGQGTQVTVSS | high polyreactivity
QVQLVESGGGLVQAGGSLRLSCAASGSTFSSLIMGCYRQAPGKERELVAAISRSGGRTYYADSVKGRFTISRDNAKNTVYLQMNSLKPEDTAVYYCAADYVSVDRIRYGYWGQGTQVTVSS | high polyreactivity
QVQLVESGGGLVQAGGSLRLSCAASGSTFSSNAMGWYRKAPGKERELVAAISVNGGSTNYADSVKGRFTISRDNAKNTVYLQMNSLKPEDTAVYYCAAEPAKVAFYRGDYWGQGTQVTVSS | low polyreactivity
QVQLVESGGGLVQAGGSLRLSCAASGSTFSSNAMGWYRQAPGKERELVAAISWSGASTYYADSVKGRFTISRDNAKNTVYLQMNSLKPEDTAVYYCATVWQAKYYGNHRFGYWGQGTQVTVSS | low polyreactivity
QVQLVESGGGLVQAGGSLRLSCAASGSTFSSNAMGWYRQAPGKERELVAAITTSGGSTYYADSVKGRFTISRDNAKNTVYLEMNSLKPEDTAVYYCAADLVHASQWSIFLYGYWGQGTQVTVSS | low polyreactivity
QVQLVESGGGLVQAGGSLRLSCAASGSTFSSSAMGWYRQAAGKERELVAAITSSGGSPYYADSVKGRLTISRDNAKNTVYLQMNSLKPEDTAVYYCAAADVIFWLYYYWGQGTQLTVSS | low polyreactivity
QVQLVESGGGLVQAGGSLRLSCAASGSTFSSYAMGWYRQAPGKEREFVAAINTDGGSTYYADSVKGRFTISRDNAKNTVYLQMNSLKPEDTAVYYCAARYYWPWYSSYDYWGQGTQVTVSS | low polyreactivity
QVQLVESGGGLVQAGGSLRLSCAASGSTFSSYAMGWYRQAPGKERELVAAISKHAGSTYYADSVKGRFTISRDNAKNTVYLQMNSLKPEDTAVYYCAKDSSVQAYYGYWYTSTDDYWGQGTQVTVSS | low polyreactivity
QVQLVESGGGLVQAGGSLRLSCAASGSTFSSYAMGWYRQAPGKERELVAAISSRGGRTYYADSVKGRFTISRDNAKNTVYLQMNSLKPEDTAVYYCAVVPFTEHDYWGQGTQVTVSS | high polyreactivity
QVQLVESGGGLVQAGGSLRLSCAASGSTFSSYAMGWYRQAPGKERELVAGISWGGSSTDYADSVKGRFTISRDNAKNTVYLQMNSLKPEDTAVYYCARRYRRGWSTLDYWGQGTQVTVSS | low polyreactivity
QVQLVESGGGLVQAGGSLRLSCAASGSTFSSYTMGWYRQAPGKERELVAAISRSGGRTYYADSVKGRFTISRDNAKNTVYLQMNSLKPEDTAVYYCNAGLGIEYDYWGQGTQVTVSS | low polyreactivity
QVQLVESGGGLVQAGGSLRLSCAASGSTFSSYVMGWDRQAPGKERELVAAISSIGGSTYYADSVKGRFTISRDNAKNTVYLQMNSQKPEDTAVYYCPAEPPGSTYEGGYWGQGTQVTVSS | low polyreactivity

Sequence | polyreactivity (PSR sort gate)
QVQLVESGGGLVQAGGSLRLSCAASGSTFSTNAMGWYRPAPGKERELVAAISRSGGSTYYADSVKGRFTHSRDNEKNTVYLHMNSLKPEDTAVYYCARVSGYRYDYWGQGTQVTVSS | high polyreactivity
QVQLVESGGGLVQAGGSLRLSCAASGSTFSTNAMGWYRQAPGKERELVAAIRWRGGRTYYADSVKGRFTISRDNAKNTVYLQMNSLKPEDTAVYYCAADYSFTGHRYTYGYWGQGTQVTVSS | high polyreactivity
QVQLVESGGGLVQAGGSLRLSCAASGSTFSTNAMGWYRQAPGKERELVAAISRSGGSTYYADSVKGRFTISRDNAKNTVYLQMNSLKPEDTAVYYCARYSYRGTNVRYDYWGQGTQVTVSS | high polyreactivity
QVQLVESGGGLVQAGGSLRLSCAASGSTFSTNAMGWYRQAPGKERELVAAISWSDDDTYYADSVKGRFTISRDNAKNTVYLQMNSLKPEDTGVYYCAAEGVGPARVYQGGEYNYWGQGTQVTVSS | low polyreactivity
QVQLVESGGGLVQAGGSLRLSCAASGSTFSTNAMGWYRQAPGKERELVASITRSGGSTYYADSVKGRFTISRDNAKNTFYLLMNSLKPEDTAVYYCNADGYYDYDYGYWGQGTQVTVSS | low polyreactivity
QVQLVESGGGLVQAGGSLRLSCAASGSTFSTNVMGWYRQAPGKERELVAAISTIGGSTYADSVKGRFTISRDNAKNTVYLQMNSQKPEDTAVYYCAKRSRYPYYPYGYWGQGTQVTVSS | high polyreactivity
QVQLVESGGGLVQAGGSLRLSCAASGSTFSVNAMGRYRQATGKERELVATISGGITNYADSVKGRFTISRDNAKNTVYLQMNSLKPEDTAVYYCNTAYRHIWVTWAAYDYWGQGTQVTVSS | low polyreactivity
QVQLVESGGGLVQAGGSLRLSCAASGSTFSVNAMGWYRQAPGKERELVAAISSTGSTKYADSVKGRFTISRDNAKNTVYLQIISLKPEDTAVYCAASNADYEYYPFSDWYFSPYDYWGQGTQVTVSS | low polyreactivity
QVQLVESGGGLVQAGGSLRLSCAASGSTFSVYAMGLYRQAPGKERELVPAITWSGGSTYYADSVKGRFTISRDNAKNTVYLQMNSLKPEDTAVYYCNAERWLATPTVPWYLYNYWGQGTQVTVSS | low polyreactivity
QVQLVESGGGLVQAGGSLRLSCAASGSTFSWNTMGWYRQAPGIERELVAAINSGGSTYYADSVKGRFTISRDNAKNSVYLQMNSLKPEDTAVYYCAADWRGSYLYGYYYWGQGTQVTVSS | low polyreactivity
QVQLVESGGGLVQAGGSLRLSCAASGSTFSWYAMGWYRQAPGKERELVASISFSGGDTSYADSVKGRFTISRDNAKNTVYLQMNSLKPEDTAVYYCGKEYKYETDTKFDYWGQGTQVTVSS | low polyreactivity
QVQLVESGGGLVQAGGSLRLSCAASGSTFSYNAMGWSRQAPGKERELVAAISSAISTNYADSVKGRFTISRDNAKNTVYLQLNSLKPDDTAVYYCNKVPDFVFLISYQLYYTKRLGYWGQGTQVNVSS | low polyreactivity
QVQLVESGGGLVQAGGSLRLSCAASGSTFSYNAMGWYRPAPGKERELVAAISGSGGTTYYADSVKGRFTISRDNAKNTVYLQMNSLKPEDTAVYYCNAYVRRTRDYDYWGQGTQVTVSS | high polyreactivity
QVQLVESGGGLVQAGGSLRLSCAASGSTFSYNAMGWYRQAPGKERELVAAINLRGGNTYYADSVKGRFTNSRDNAKNTVYLQMNSLKPEDTAVYYCARTRRHSQTFDYWGQGTQVIVSS | high polyreactivity
QVQLVESGGGLVQAGGSLRLSCAASGSTFSYNAMGWYRQAPGKERELVAAISGSGGTTYYSDSVKGRFTISRDNAKNTVYLQMNSLKPEDTAVYYCAARPFRSWRYDYWGQGTQVTVSS | low polyreactivity
QVQLVESGGGLVQAGGSLRLSCAASGSTFSYNAMGWYRQAPGKERELVAAISRGDVSTYYADSVKGRFTISRDNAKNTVYLQMNSLKPEDTAVYYCADYWYGSQYKWRYDYWGQGTQVTVSS | low polyreactivity
QVQLVESGGGLVQAGGSLRLSCAASGSTFSYNAMGWYRQAPGKERELVAAISRSGGSTYYADSVKGRFTISRDNAKNTVYLQIKSLKPEFTAVYYFAADSPYGYYEGDYWGQGTQVTVSS | low polyreactivity
QVQLVESGGGLVQAGGSLRLSCAASGSTFSYNAMGWYRQAPGKERELVAAITSGSSTNYADSVKGRFTISRDNAKNTVYLQMNSLKPEDTAVYYCAADGYQDKYYWLENWVGYWGQGTQVTVSS | low polyreactivity
QVQLVESGGGLVQAGGSLRLSCAASGSTFSYNAMGWYRQAPGKERELVATITTGGRTSYADSVKGRFTISRDNAKNTVYLQMNSLKPEDTAVYYCAAVGRFSSRPRVVYYGYDYWGQGTQVTVSS | low polyreactivity
QVQLVESGGGLVQAGGSLRLSCAASGSTFSYNAMGWYRQAPGKVRELVASINSRGGTTYYADSVKGRFTISRDNAKNTVYLQMNSLKPEDTAVYYCATDVYRLGEYDYWGQGTQVTVSS | low polyreactivity
QVQLVESGGGLVQAGGSLRLSCAASGSTFSYYAMGWYRQAPGKERDLVAAISTDGGSTYYADSVKGRFTISRDNAKNTVYLQMNSLKPEDTAVYYCAALVGYYQYVWDLTYTVVEYNYWGQGTQVNVSS | low polyreactivity
